Reference: the supplement of paper PMC6757056
± gives the standard deviation of the averaged measurements.

B1: library; a variant is named by its letters at N, in order (parent)
chain: GCUGUCACCGGUGUAUUACCCUAGUGGUCGACCGGUCUGAUGAGUCUNNNNNNAGACGAAACAGC

What was measured:
hypoxanthine [1] = variants of: B1; experiment: FACS-Seq fitted mean relative fluorescence mCherry/BFP without ligand (log10 relative fluorescence); ligand: hypoxanthine (xanthine aptamer); higher = higher reporter protein expression; conditions: HEK293T, ligand present: no
How it was run: (§1)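 HEK293T libraries were made by lentiviral transduction with a ribozyme-switch mCherry reporter and an EF1α-BFP marker, enriched, and incubated with or without ligand for 48 h. Cells were sorted into 6 mCherry/BFP bins, and each bin's genomic DNA was PCR-amplified, barcoded and run on MiSeq. Fluorescence was derived by normal fitting of the bin counts. The fitted log10(mCherry/BFP) mean was scaled to five spiked-in control ribozymes.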

hypoxanthine [2] = variants of: B1; experiment: normalized RNA/DNA level with ligand (relative to sTRSVctl = 100) (log10 (% of sTRSVctl)); ligand: hypoxanthine (xanthine aptamer); higher = less ribozyme self-cleavage, higher mRNA level; conditions: ligand concentration (+) RNA-Seq: 5 mM, HEK293T, reporter: mCherry (pCS4076), ligand present: yes
Procedure: (§2)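 Hammerhead (sTRSV) ribozyme switch libraries with a ligand aptamer grafted on stem I and a randomized N4-6 loop II, cloned into the 3' UTR of mCherry and transiently transfected into HEK293T cells; RNA-Seq 72 h post transfection with ligand added 1 h before transfection; RNA read count / plasmid DNA read count normalized to the non-cleaving sTRSVctl (x100), log10; sequences with >100 DNA reads. FACS-Seq: lentiviral library sorted into 6 bins after 48 h ligand, log-normal fit mean of mCherry/BFP scaled to controls. Printed sequences are partial switch sequences.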

hypoxanthine [3] = variants of: B1; experiment: normalized RNA/DNA level without ligand (relative to sTRSVctl = 100) (log10 (% of sTRSVctl)); ligand: hypoxanthine (xanthine aptamer); higher = less ribozyme self-cleavage, higher mRNA level; conditions: HEK293T, reporter: mCherry (pCS4076), ligand present: no
Procedure: as §2

hypoxanthine [4] = variants of: B1; experiment: FACS-Seq fitted mean relative fluorescence mCherry/BFP with ligand (log10 relative fluorescence); ligand: hypoxanthine (xanthine aptamer); ligand concentration (+) FACS-Seq: 5 mM; higher = higher reporter protein expression; conditions: HEK293T, ligand present: yes
How it was run: as §1

Variant | FACS-Seq fitted mean (log10) (hypoxanthine [1]) | normalized RNA/DNA level with ligand (log10) (hypoxanthine [2]) | normalized RNA/DNA level without ligand (log10) (hypoxanthine [3]) | FACS-Seq fitted mean (log10) (hypoxanthine [4])
GCACGG | -0.136 ± 0.023 | 1.86 ± 0.026 | 1.444 ± 0.009 | 0.376 ± 0.087
ACACGG | -0.144 ± 0.07 | 1.79 ± 0.053 | 1.32 ± 0.041 | 0.465 ± 0.024
ACACGU | 0.624 ± 0.02 | 1.95 ± 0.079 | 1.823 ± 0.0069 | 0.572 ± 0.096
GCACUA | 0.503 ± 0.091 | 1.939 ± 0.0064 | 1.81 ± 0.027 | 0.489 ± 0.08
CCACUG | 0.339 ± 0.054 | 1.917 ± 0.012 | 1.8 ± 0.1 | 0.526 ± 0.076
GCACUG | 0.25 ± 0.031 | 1.877 ± 0.012 | 1.45 ± 0.029 | 0.464 ± 0.011
ACACUG | 0.4461 ± 0.0036 | 1.9 ± 0.021 | 1.42 ± 0.097 | 0.795 ± 0.052
UCACUG | 0.184 ± 0.08 | 1.89 ± 0.041 | 1.55 ± 0.012 | 0.463 ± 0.081
GCACUU | 0.8516 ± 0.0035 | 1.965 ± 0.015 | 1.9 ± 0.068 | 0.751 ± 0.069
CCAGAA | 0.561 ± 0.0022 | 1.94 ± 0.053 | 1.79 ± 0.053 | 0.631 ± 0.011
GCAGAA | 0.408 ± 0.02 | 1.88 ± 0.057 | 1.7 ± 0.031 | 0.472 ± 0.013
CCAGAG | 0.628 ± 0.021 | 1.95 ± 0.038 | 1.51 ± 0.066 | 0.741 ± 0.022
GCAGAG | 0.09517 ± 0.00035 | 1.78 ± 0.031 | 1.35 ± 0.051 | 0.558 ± 0.037
ACAGAG | 0.0524 ± 0.0076 | 1.79 ± 0.044 | 1.34 ± 0.041 | 0.353 ± 0.058
GCAGAU | -0.106 ± 0.1 | 1.92 ± 0.077 | 1.76 ± 0.031 | -0.1997 ± 0.0017
ACAGAU | 0.263 ± 0.00091 | 1.89 ± 0.033 | 1.64 ± 0.049 | 0.461 ± 0.069
GCAGCA | 0.363 ± 0.034 | 1.983 ± 0.0069 | 1.827 ± 0.016 | 0.663 ± 0.015
CCAGCC | -0.754 ± 0.048 | 2 ± 0.026 | 1.916 ± 0.013 | -0.409 ± 0.044

Variant | FACS-Seq fitted mean (log10) (hypoxanthine [1]) | normalized RNA/DNA level with ligand (log10) (hypoxanthine [2]) | normalized RNA/DNA level without ligand (log10) (hypoxanthine [3]) | FACS-Seq fitted mean (log10) (hypoxanthine [4])
GCAGCC | 0.465 ± 0.1 | 1.99 ± 0.044 | 1.78 ± 0.023 | 0.532 ± 0.069
ACAGCG | 0.12 ± 0.062 | 1.92 ± 0.028 | 1.67 ± 0.0018 | 0.456 ± 0.065
UCAGCG | 0.383 ± 0.009 | 1.94 ± 0.067 | 1.8203 ± 0.0012 | 0.656 ± 0.083
GCAGGA | 0.661 ± 0.024 | 1.9091 ± 0.0012 | 1.72 ± 0.035 | 0.705 ± 0.051
ACAGGA | 0.278 ± 0.028 | 1.905 ± 0.013 | 1.66 ± 0.043 | 0.473 ± 0.069
UCAGGA | 0.301 ± 0.039 | 1.89 ± 0.02 | 1.44 ± 0.047 | 0.6634 ± 0.0026
GCAGGG | -0.0762 ± 0.0096 | 1.88 ± 0.028 | 1.506 ± 0.0099 | 0.479 ± 0.017
ACAGGG | 0.428 ± 0.034 | 1.83 ± 0.038 | 1.44 ± 0.032 | 0.788 ± 0.041
UCAGGG | 0.486 ± 0.02 | 1.951 ± 0.015 | 1.69 ± 0.065 | 0.704 ± 0.067
ACAGGU | 0.51 ± 0.04 | 1.858 ± 0.0068 | 1.49 ± 0.082 | 0.744 ± 0.054
UCAGUA | 0.09 ± 0.0096 | 1.92 ± 0.069 | 1.797 ± 0.013 | 0.386 ± 0.036
GCAGUC | 0.791 ± 0.051 | 1.94 ± 0.047 | 1.71 ± 0.047 | 0.764 ± 0.064
ACAGUC | 0.656 ± 0.012 | 1.924 ± 0.0022 | 1.951 ± 0.0032 | 0.657 ± 0.04
GCAGUG | 0.155 ± 0.01 | 1.87 ± 0.075 | 1.4 ± 0.064 | 0.533 ± 0.039
ACAGUU | -0.0389 ± 0.048 | 1.914 ± 0.0073 | 1.73 ± 0.021 | 0.0577 ± 0.038
UCAGUU | -0.0872 ± 0.018 | 1.96 ± 0.046 | 1.87 ± 0.04 | 0.0688 ± 0.016
GCAUAA | 0.705 ± 0.011 | 1.92 ± 0.03 | 1.801 ± 0.015 | 0.6261 ± 0.0017
ACAUAA | 0.531 ± 0.011 | 1.899 ± 0.0086 | 1.79 ± 0.021 | 0.532 ± 0.029
